Where no end group is shown, it is not given here. The star is where a group is joined. Biotin = O=C1N[C@H]2[C@H](CS[C@H]2CCCCC(=O)*)N1

We go through 4 molecules from patent publication US8729028B2, “Noggin-derived peptide and use thereof” (Caregen Co., Ltd., priority 2009, dated 2014).

The target in data set [1] is T1, rh-BMP4 protein (Homo sapiens, UniProt P12644).
T1 construct: purchased R&D Systems, Inc., USA
T1 sequence (P12644 293-408): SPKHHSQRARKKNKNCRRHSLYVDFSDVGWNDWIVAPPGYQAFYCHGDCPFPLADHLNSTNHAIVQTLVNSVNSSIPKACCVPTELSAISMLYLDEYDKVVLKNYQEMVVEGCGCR
The experiment in a line: Streptavidin chromatography with SDS-PAGE and western blot (immunobinding to BMP4). It is filed as binding. The conditions noted are these: streptavidin column, elution with NaCl, western blot with anti-BMP4 antibody (FIG. 8b). The protocol:
The N-terminus of the peptide prepared in Synthesis Example was modified with biotin (Sigma, USA). For streptavidin chromatography, the biotinylated peptide was loaded in a column packed with streptavidin-attached resin and equilibrated with 20 mM sodium phosphate buffer. Then, after flowing rh-BMP4 protein (R&D Systems, Inc., USA) through the column, 200 mM sodium phosphate buffer was flown to flush unbound protein and the protein bound to the biotinylated peptide was fractionated by eluting with 0.2 M NaCl. The eluate was analyzed by SDS-PAGE (see FIG. 8a) and it was confirmed whether the BMP4 protein binds with the biotinylated peptide by western blotting using anti-BMP4 antibody (Santa Cruz, USA) (see FIG. 8b).
On the technique in general: A western blot detects proteins with antibodies after separation by electrophoresis.

Another data set addresses T2, BMP-4 (Homo sapiens, UniProt P12644).
T2 construct: purchased R&D Systems, Inc., USA
T2 sequence (P12644 293-408): T1 sequence (P12644 293-408)
The data set is described as follows: Melanin production in α-MSH-induced, BMP-4-treated melanocytes (antagonistic activity against BMP-4). Type of data set: cell-based. The conditions noted are these: for melanin production: C57BL/6 mouse melanocytes, 200 μg/mL α-MSH, 1 μg/mL BMP-4, cultured 3 days, observed with naked eyes (FIG. 5). The protocol:
In order to investigate the antagonistic activity of the peptide synthesized in Synthesis Example against the growth factor BMP-4, C57BL/6 mouse melanocytes (Jung Ang Lab. Animal, Korea) were cultured and melanin production was induced with α-melanocyte stimulating hormone (α-MSH; Sigma). Then, after treating with BMP-4 (R&D Systems, Inc., USA) and then immediately with the synthesized peptide at different concentrations, it was checked whether the melanin production inhibited by BMP was activated again. The mouse melanocytes were cultured using DMEM (Sigma) containing 10% FBS (Sigma) at 37° C. under 5% CO2. After culturing the cells on a 24-well plate at 1×10^5 cells/well and confirming attachment of the cells, the cells were treated only with a solvent (control), with 200 μg/mL α-MSH (positive control) or with 1 μg/mL BMP-4. Then, the cells were treated with the peptide of SEQ ID NO: 1. After adding the test substance to each dish, the cells were cultured for 3 days. The test substance had been prepared by dissolving the ingredients in a solvent and diluting to the test concentration using a 5:3:2 mixture solvent of propylene glycol:ethanol:purified water. After removing the medium by centrifugation, the production of melanin could be observed with naked eyes.
For more accurate measurement, cells were washed with PBS and lysed with 1 N sodium hydroxide. Then, after measuring absorbance at 400 nm, inhibition of melanin production was calculated according to the Dooley's method (Dooley, T. P. et al., Skin Pharmacol. 7: 188-200 (1994)), and the result was shown in FIG. 6. The result shown in FIG. 6 coincides with that of FIG. 5.

Data set [2] addresses T1, rh-BMP4 protein. The data set is described as follows: Biacore binding of peptide to immobilised BMP4. Particulars: CM5 sensor chip, 6000 RU rh-BMP4, peptide 4-1000 μg/mL (FIG. 7). The protocol:
(§1) In order to investigate whether the peptide synthesized according to the present disclosure binds to the BMP protein, the Biacore instrument allowing the detection of binding between drugs and receptors was used.
(§2) 6000 response units (RU) of rh-BMP4 protein (R&D Systems, Inc., USA) was fixed to a commercially available CM5 sensor chip (Biacore, Sweden) by amination. Then, HBS-EP buffer (Biacore, Sweden) was flown at a rate of 5 μL/min to activate the BMP4 protein on the CM5 sensor chip. After optimization for reaction, the synthesized peptide was flown at different concentrations (1000 μg/mL, 500 μg/mL, 250 μg/mL, 125 μg/mL, 62.5 μg/mL, 31.3 μg/mL, 15.6 μg/mL, 7.8 μg/mL, 4 μg/mL). The binding between BMP4 and the synthetic peptide could be identified from the increase in RU value.
On the technique in general: Surface plasmon resonance follows binding to a sensor surface in real time, without labels.

The subject of the next data set is HaCaT keratinocytes. The experiment in a line: SRB colorimetric assay of cellular growth, keratinocytes. Type of data set: cell-based. Particulars: peptide 100 ng/mL, 72 hours, SRB absorbance 590 nm and microscopy (FIGS. 2a, 3). The protocol: (§3) To analyze the growth factor-like effect of the peptide synthesized in Synthesis Example, sulforhodamine B (SRB) calorimetric assay was carried out using HaCaT keratinocytes (Korean Cell Line Bank) and NIH3T3 fibroblasts (Korean Cell Line Bank) according to Rizzino et al.'s method (Rizzino et al. Cancer Res. 48: 4266 (1988)).
(§4) HaCaT keratinocytes and NIH3T3 fibroblasts were cultured respectively in a 250-mL tissue culture flask in Eagle's minimal essential media (EMEM; Gibco, U.S.A.) containing 10% fetal bovine serum (FBS; Sigma). The cultured cells were treated with 0.25% trypsin solution to detach the cells from the bottom of the culture flask and centrifuged to collect cell pellets. They were resuspended in FBS-free EMEM and added to each well of a 96-well tissue culture plate, with 4×10^3 cells per well. The cells were cultured under 7% CO2 for 24 hours at 37° C. 24 hours later, the medium was changed with fresh, FBS-containing medium and the cells were incubated for 72 hours under the same conditions as described above with blank sample as reference or with the sterilized synthetic peptide (100 ng/mL) dissolved in water and 10% DMSO. After removing the supernatant, the cells were washed once with phosphate buffered saline (PBS). […] In addition, absorbance was measured at 590 nm to analyze cell proliferation.
(The SRB assay estimates cell density from bound dye.)

The subject of another data set is C57BL/6 mouse. The experiment in a line: Hair growth on depilated back skin of mouse. Type of data set: in vivo. The conditions noted are these: C57BL/6 mouse back, 10 μL of 1 μg/μL on days 0, 2 and 4, observed for 10 days, against PBS (FIG. 10). The protocol:
In order to investigate the hair growth promoting effect of the peptide synthesized in Synthesis Example, hair of the back of a mouse (C57BL/6, Jung Ang Lab. Animal, Korea) was partially removed using hair removal cream. 10 μL of the peptide of SEQ ID NO: 1 (1 μg/μL) was administered or applied on the upper portion of the back of the mouse, and 10 μL of PBS was administered or applied on the lower portion of the back of the mouse, on days 0, 2 and 4.

Data set [3] is described as follows: Thermal stability at 37° C. in phosphate buffer, HPLC quantification. Type of data set: physicochemical. The conditions noted are these: 0.11 mg/mL phosphate buffer, days 0-70, compared with reference Noggin (FIG. 9). The protocol: The peptide prepared in Synthesis Example and a reference growth factor (Noggin, FGF-10) purchased from NIBSC (UK) were prepared to 0.11 mg/mL phosphate buffer solutions. 1 mL of each prepared solution was put in a glass vial and kept at 37° C. The solution was sampled on days 0, 5, 10, 20, 30, 40 and 70. After centrifugation to remove any denatured peptide or protein, the supernatant was subjected to HPLC for quantification (FIG. 9).

The subject of the next data set is HaCaT cells. The data set is described as follows: Laminin and hyaluronic acid production (ELISA kits). It is filed as cell-based. Particulars: 72 hours after treatment. The protocol:
HaCaT cells cultured for 48 hours were treated with the peptide synthesized in Synthesis Example. 72 hours later, the level of laminin and hyaluronic acid was measured as an indicator to show the improvement in skin wrinkles. The measurement was made using a laminin ELISA kit (Takara, Japan) and a hyaluronic acid ELISA kit (Takara, Japan).

The subject of a further data set is NIH3T3 fibroblasts. The data set is described as follows: SRB colorimetric assay of cellular growth, fibroblasts. It is filed as cell-based. Particulars: NIH3T3, peptide 100 ng/mL, 72 hours, SRB absorbance 590 nm and microscopy (FIGS. 2b, 3). The protocol: as §3, §4
Data set [4] deals with T3, rh-BMP4 protein (R&D Systems, Inc., USA) (human, UniProt P12644 293-408).
T3 construct: Bought protein; also called BMP protein
T3 sequence (looked up): T1 sequence (P12644 293-408)
The experiment in a line: SPR (Biacore), rh-BMP4 fixed on a CM5 chip, peptide flown at 4-1000 µg/mL. The protocol: as §1, §2

In the case of “biotinylated peptide: The N-terminus of the peptide prepared in Synthesis Example was modified with biotin (Biotin-ELIEHGGGRPAD)”, the “binding of BMP4 protein to peptide” value in the data set with rh-BMP4 protein [1] is reported as “bound”.
As to “α-melanocyte stimulating hormone [α-MSH, reference compound]”, the melanin production entry at BMP-4 is “abrupt increase in melanin production”.
Consider “Glu-Leu-Ile-Glu-His (SEQ ID NO:2)-Linker-Arg-Pro-Ala-Asp (SEQ ID NO:3) peptide (linker=Gly-Gly-Gly) (ELIEHGGGRPAD; listed as Homo sapiens) [SEQ ID NO: 1, noggin-derived peptide]”, for which the “binding to BMP4 (increase in RU value)” value in the data set with rh-BMP4 protein [2] is “very strong binding ability”. Besides, the growth of keratinocytes result in the data set on HaCaT keratinocytes was “promote the growth”. Further, the hair growth result with C57BL/6 mouse was “effective in promoting hair growth”. In addition, in [3], the thermal stability result is given as “much superior thermal stability to the existing noggin peptide”. Besides, in the data set with rh-BMP4 protein [1], the “binding of BMP4 protein to peptide” value is on record as “very strongly binds”. Besides, in the data set on HaCaT cells (hyaluronic acid ELISA kit (FIG. 4b)), the “production of hyaluronic acid” value was “increases the production”. The production of laminin result in the data set on HaCaT cells (laminin ELISA kit (FIG. 4a)) is reported as “increases the production”. Further, in the data set with NIH3T3 fibroblasts, the growth of fibroblasts result is listed as “promote the growth”. Besides, the melanin production result with BMP-4 is given as “melanin production comparable to that of the α-MSH-treated group”. In addition, the BMP-4 activity result in the data set with BMP-4 (inferred from restored melanin production in BMP-4-treated mouse melanocytes (FIG. 5)) is on record as “appropriately inhibits the BMP-4 activity”.

B1: Glu-Leu-Ile-Glu-His (SEQ ID NO:2)-Linker-Arg-Pro-Ala-Asp (SEQ ID NO:3) peptide (linker=Gly-Gly-Gly) (SEQ ID NO:1) (peptide)
peptide: ELIEHGGGRPAD
notes: Made by solid-phase synthesis; The synthesis text describes an acetylation step with acetic anhydride after the last Fmoc removal; However, the printed theoretical weight of 1250.35 matches the peptide without an acetyl group, so no N-terminal acetyl is entered; also called synthesized peptide
Regarding B1, the binding result in data set [4] is on record as “binds”.
